{
  "source": "patent US20040005324A1",
  "about": "(INTRACEL RESOURCES, published 2004)",
  "binders": {"B1": {"name": "human monoclonal Fab RSVF2-5 (Fab, V domains shown)", "VH": "LEESGGDLVQPGRSLRLSCSTSGFSFGDYPVNWFRQAPGKGLEWLGIVRSRLYGGTLQYAASVEGRFTISRDDSKSIAYLHMNSLKSEDTAVYYCGVPVANIDYWGQGTLVTVSS", "VL": "LTQPHSVSESLGKTVTISCTRAGGRIASNYVQWYQQRPGSSPTTVIYEDNQRPFGVPDRFSGSIDTSSNSASLTISGLKTEDEADYYCQSYDSENPWVFGGGTKLTVLG", "notes": "CH1 and CL are therefore probably not in these entries; also called RSV Fab F2-5"}},
  "key": {"BSA": {"biological_target": "BSA (UniProt P02769 25-607)", "sequence (P02769 25-607 limits assumed)": "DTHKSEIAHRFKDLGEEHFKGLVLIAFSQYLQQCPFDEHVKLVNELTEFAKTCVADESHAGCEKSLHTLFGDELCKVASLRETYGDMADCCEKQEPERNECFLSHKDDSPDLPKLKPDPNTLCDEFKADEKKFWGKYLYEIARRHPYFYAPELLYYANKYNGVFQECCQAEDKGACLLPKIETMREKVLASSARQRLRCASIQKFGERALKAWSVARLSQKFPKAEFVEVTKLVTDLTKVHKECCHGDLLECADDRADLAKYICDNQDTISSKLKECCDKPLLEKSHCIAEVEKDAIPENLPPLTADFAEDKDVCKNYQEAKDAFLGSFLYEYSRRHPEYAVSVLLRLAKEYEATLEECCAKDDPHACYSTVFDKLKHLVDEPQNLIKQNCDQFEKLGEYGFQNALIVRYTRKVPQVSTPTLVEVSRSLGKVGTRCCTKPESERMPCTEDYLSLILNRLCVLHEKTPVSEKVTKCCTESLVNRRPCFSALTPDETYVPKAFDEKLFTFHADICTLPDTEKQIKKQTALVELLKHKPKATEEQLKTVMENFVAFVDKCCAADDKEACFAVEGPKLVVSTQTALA", "experiment": "ELISA with purified Fab"}, "[1]": {"biological_target": "RSV F glycoprotein of subgroup A isolate SW/669/′59 (respiratory syncytial virus, subgroup A)", "experiment": "cell-based or functional assay"}, "[2]": {"biological_target": "RSV F glycoprotein of subgroup A isolate Wash/11657/′60 (respiratory syncytial virus, subgroup A)", "experiment": "cell-based or functional assay"}, "[3]": {"biological_target": "RSV F glycoprotein of subgroup A isolate Wash/Bern/′65 (respiratory syncytial virus, subgroup A)", "experiment": "cell-based or functional assay"}, "[4]": {"biological_target": "RSV F glycoprotein of subgroup A isolate SL/863/′84 (respiratory syncytial virus, subgroup A)", "experiment": "cell-based or functional assay"}, "[5]": {"biological_target": "RSV F glycoprotein of subgroup A isolate SL/10849/′84 (respiratory syncytial virus, subgroup A)", "experiment": "cell-based or functional assay"}, "[6]": {"biological_target": "RSV F glycoprotein of subgroup A isolate SL/10865/′84 (respiratory syncytial virus, subgroup A)", "experiment": "cell-based or functional assay"}, "[7]": {"biological_target": "RSV F glycoprotein of subgroup A isolate OK/9970/′85 (respiratory syncytial virus, subgroup A)", "experiment": "cell-based or functional assay"}, "[8]": {"biological_target": "RSV F glycoprotein of subgroup A isolate Bir/6190/′89 (respiratory syncytial virus, subgroup A)", "experiment": "cell-based or functional assay"}, "[9]": {"biological_target": "RSV F glycoprotein of subgroup A isolate New/RSS-2/′76 (respiratory syncytial virus, subgroup A, UniProt P11209 26-574)", "experiment": "cell-based or functional assay"}, "[10]": {"biological_target": "RSV F glycoprotein of subgroup A isolate Bir/1734/′89 (respiratory syncytial virus, subgroup A)", "experiment": "cell-based or functional assay"}, "[11]": {"biological_target": "RSV F glycoprotein of subgroup B isolate WV/474R/′90 (respiratory syncytial virus, subgroup B)", "experiment": "cell-based or functional assay"}, "[12]": {"biological_target": "RSV F glycoprotein of subgroup B isolate WV/1293/′75 (respiratory syncytial virus, subgroup B)", "experiment": "cell-based or functional assay"}, "[13]": {"biological_target": "RSV F glycoprotein of subgroup B isolate WV/4843/′80 (respiratory syncytial virus, subgroup B)", "experiment": "cell-based or functional assay"}, "[14]": {"biological_target": "RSV F glycoprotein of subgroup B isolate Wash/18537/′62 (respiratory syncytial virus, subgroup B, UniProt P13843 26-574)", "experiment": "cell-based or functional assay"}, "[15]": {"biological_target": "RSV F glycoprotein of subgroup B isolate WV/14617/′85 (respiratory syncytial virus, subgroup B)", "experiment": "cell-based or functional assay"}, "[16]": {"biological_target": "RSV F glycoprotein of subgroup B isolate WV/17154/′85 (respiratory syncytial virus, subgroup B)", "experiment": "cell-based or functional assay"}, "[17]": {"biological_target": "RSV F glycoprotein of subgroup B isolate WV/20323/′87 (respiratory syncytial virus, subgroup B)", "experiment": "cell-based or functional assay"}, "[18]": {"biological_target": "RSV F glycoprotein of subgroup B isolate WV/285R/′90 (respiratory syncytial virus, subgroup B)", "experiment": "cell-based or functional assay"}, "[19]": {"biological_target": "RSV F glycoprotein of subgroup B isolate WV/401R/′90 (respiratory syncytial virus, subgroup B)", "experiment": "cell-based or functional assay"}, "[20]": {"biological_target": "RSV F glycoprotein of subgroup B isolate WV/2B/′87 (respiratory syncytial virus, subgroup B)", "experiment": "cell-based or functional assay"}, "[21]": {"biological_target": "RSV F glycoprotein of wild type RSV strain A2 (respiratory syncytial virus strain A2, UniProt P03420 26-574)", "experiment": "cell-based or functional assay"}, "[22]": {"biological_target": "RSV F glycoprotein of MARM v1237 (strain A2 escape mutant, substitution at aa 276) (respiratory syncytial virus strain A2, UniProt P03420 26-574)", "experiment": "cell-based or functional assay"}, "[23]": {"biological_target": "RSV F glycoprotein of MARM v1214 (strain A2 escape mutant, substitution at aa 276) (respiratory syncytial virus strain A2, UniProt P03420 26-574)", "experiment": "cell-based or functional assay"}, "[24]": {"biological_target": "RSV F glycoprotein of MARM v1129 (strain A2 escape mutant, substitution at aa 275) (respiratory syncytial virus strain A2, UniProt P03420 26-574)", "experiment": "cell-based or functional assay"}, "[25]": {"biological_target": "RSV F glycoprotein of MARM vN151 (strain A2 escape mutant, substitution at aa 272) (respiratory syncytial virus strain A2, UniProt P03420 26-574)", "experiment": "cell-based or functional assay"}, "[26]": {"biological_target": "RSV F glycoprotein of MARM v1200 (strain A2 escape mutant, substitution at aa 272) (respiratory syncytial virus strain A2, UniProt P03420 26-574)", "experiment": "cell-based or functional assay"}, "[27]": {"biological_target": "RSV F glycoprotein of MARM v1153 (strain A2 escape mutant, substitution at aa 262) (respiratory syncytial virus strain A2, UniProt P03420 26-574)", "experiment": "cell-based or functional assay"}, "[28]": {"biological_target": "RSV F glycoprotein of MARM v324 (strain A2 escape mutant, arginine to serine at residue 429 of the F1 subunit) (respiratory syncytial virus strain A2, UniProt P03420 26-574, limits assumed)", "experiment": "cell-based or functional assay"}},
  "data": [
    {"binder": "B1", "values": [
      {"measurement": "binding result", "setting": "BSA", "result": "no binding"},
      {"measurement": "Specific neutralization activity (µg/ml): purified Fab for 60% plaque reduction, Vero cells", "setting": "[1]", "result": 3, "unit": "µg/mL"},
      {"measurement": "Specific neutralization activity (µg/ml): purified Fab for 60% plaque reduction, Vero cells", "setting": "[2]", "result": 1.6, "unit": "µg/mL"},
      {"measurement": "Specific neutralization activity (µg/ml): purified Fab for 60% plaque reduction, Vero cells", "setting": "[3]", "result": 0.6, "unit": "µg/mL"},
      {"measurement": "Specific neutralization activity (µg/ml): purified Fab for 60% plaque reduction, Vero cells", "setting": "[4]", "result": 0.2, "unit": "µg/mL"},
      {"measurement": "Specific neutralization activity (µg/ml): purified Fab for 60% plaque reduction, Vero cells", "setting": "[5]", "result": 0.9, "unit": "µg/mL"},
      {"measurement": "Specific neutralization activity (µg/ml): purified Fab for 60% plaque reduction, Vero cells", "setting": "[6]", "result": 0.4, "unit": "µg/mL"},
      {"measurement": "Specific neutralization activity (µg/ml): purified Fab for 60% plaque reduction, Vero cells", "setting": "[7]", "result": 1.4, "unit": "µg/mL"},
      {"measurement": "Specific neutralization activity (µg/ml): purified Fab for 60% plaque reduction, Vero cells", "setting": "[8]", "result": 2.4, "unit": "µg/mL"},
      {"measurement": "Specific neutralization activity (µg/ml): purified Fab for 60% plaque reduction, Vero cells", "setting": "[9]", "result": 1.9, "unit": "µg/mL"},
      {"measurement": "Specific neutralization activity (µg/ml): purified Fab for 60% plaque reduction, Vero cells", "setting": "[10]", "result": 1.1, "unit": "µg/mL"},
      {"measurement": "Specific neutralization activity (µg/ml): purified Fab for 60% plaque reduction, Vero cells", "setting": "[11]", "result": 0.9, "unit": "µg/mL"},
      {"measurement": "Specific neutralization activity (µg/ml): purified Fab for 60% plaque reduction, Vero cells", "setting": "[12]", "result": 1, "unit": "µg/mL"},
      {"measurement": "Specific neutralization activity (µg/ml): purified Fab for 60% plaque reduction, Vero cells", "setting": "[13]", "result": 0.5, "unit": "µg/mL"},
      {"measurement": "Specific neutralization activity (µg/ml): purified Fab for 60% plaque reduction, Vero cells", "setting": "[14]", "result": 0.5, "unit": "µg/mL"},
      {"measurement": "Specific neutralization activity (µg/ml): purified Fab for 60% plaque reduction, Vero cells", "setting": "[15]", "result": 2.6, "unit": "µg/mL"},
      {"measurement": "Specific neutralization activity (µg/ml): purified Fab for 60% plaque reduction, Vero cells", "setting": "[16]", "result": 2.1, "unit": "µg/mL"},
      {"measurement": "Specific neutralization activity (µg/ml): purified Fab for 60% plaque reduction, Vero cells", "setting": "[17]", "result": 0.8, "unit": "µg/mL"},
      {"measurement": "Specific neutralization activity (µg/ml): purified Fab for 60% plaque reduction, Vero cells", "setting": "[18]", "result": 0.6, "unit": "µg/mL"},
      {"measurement": "Specific neutralization activity (µg/ml): purified Fab for 60% plaque reduction, Vero cells", "setting": "[19]", "result": 0.7, "unit": "µg/mL"},
      {"measurement": "Specific neutralization activity (µg/ml): purified Fab for 60% plaque reduction, Vero cells", "setting": "[20]", "result": 0.3, "unit": "µg/mL"},
      {"measurement": "Dose for 60% plaque reduction", "setting": "[21]", "result": 0.1, "unit": "µg/mL"},
      {"measurement": "Dose for 60% plaque reduction", "setting": "[22]", "result": "< 0.3", "unit": "µg/mL"},
      {"measurement": "Dose for 60% plaque reduction", "setting": "[23]", "result": 0.1, "unit": "µg/mL"},
      {"measurement": "Dose for 60% plaque reduction", "setting": "[24]", "result": 0.5, "unit": "µg/mL"},
      {"measurement": "Dose for 60% plaque reduction", "setting": "[25]", "result": 0.4, "unit": "µg/mL"},
      {"measurement": "Dose for 60% plaque reduction", "setting": "[26]", "result": 0.3, "unit": "µg/mL"},
      {"measurement": "Dose for 60% plaque reduction", "setting": "[27]", "result": 0.9, "unit": "µg/mL"},
      {"measurement": "Dose for 60% plaque reduction", "setting": "[28]", "result": "> 18", "unit": "µg/mL"}
    ]}
  ]
}
